From PMC8251712
Where a chain is given by its changes, count along the chain named.

How the values were obtained:
[1] = biological target: T1, Myb10-D (Pcold-Myb10-D fusion) (Triticum aestivum, UniProt C0SPG5 1-265); assay: EMSA
[2] = biological target: T1, Myb10-D (Pcold-Myb10-D fusion); assay: competition
[3] = biological target: T1, Myb10-D (Pcold-Myb10-D fusion); assay: competition; remark: listed apart in the source
[4] = biological target: T1, Myb10-D (Pcold-Myb10-D fusion); assay: EMSA; remark: listed apart in the source
[5] = biological target: T1, Myb10-D (Pcold-Myb10-D fusion); assay: competition; remark: listed apart in the source

B1: ABA3 269200 WT (dsDNA)
DNA 1: ACATCGTCGTTCATCACCAGCTAGCGAAGCAAACAAGGAG
DNA 2: CTCCTTGTTTGCTTCGCTAGCTGGTGATGAACGACGATGT
[1]
  binding result: binds

B2: ABA3 269200 mu (dsDNA)
DNA 1: B1 DNA 1 with C18G, A19G, C21G, T22G, A23G
DNA 2: B1 DNA 2 with T18C, A19C, G20C, T22C, G23C
[2]
  binding result: no binding

B3: NCED freeprobe2988mu (mutant competitor) (dsDNA)
DNA 1: ACGTAATCTTTGAACTTTTCGGGGGGAAACATTTCCACC
DNA 2: GGTGGAAATGTTTCCCCCCGAAAAGTTCAAAGATTACGT
[3]
  binding result: no binding

B4: SDR 396500 WT (dsDNA)
DNA 1: CCGGATTGAGGGCCGGAGTAGCTGCAGGTGTGATCTCCCG
DNA 2: CGGGAGATCACACCTGCAGCTACTCCGGCCCTCAATCCGG
[4]
  binding result: no binding

B5: AAO 343200 WT (dsDNA)
DNA 1: CACGAAGATTTCCCAGCTATCATCAATAAGACCAGGTCGC
DNA 2: GCGACCTGGTCTTATTGATGATAGCTGGGAAATCTTCGTG
[4]
  binding result: no binding

B6: NCED probe2988 (SMRE) (dsDNA)
DNA 1: ACGTAATCTTTGAACTTTTCACCAAATAAACATTTCCACC
DNA 2: GGTGGAAATGTTTATTTGGTGAAAAGTTCAAAGATTACGT
[1]
  binding result: binds

B7: NCED freeprobe2988 (WT competitor) (dsDNA)
DNA 1: B6 DNA 1
DNA 2: B6 DNA 2
[5]
  binding result: binds
